Assay results from patent US20170190774A1 (REPROPHARM, published 2017).
Where two headings read alike, the source gives them in different places.

Key:
[1] = biological target: T1, human FSH Gonal-F (recombinant human FSH, Merck Serono) (human, UniProt P01215 25-116; P01225 19-129); experiment: cell-based or functional assay
[2] = biological target: T2, ovine FSH (oFSH) (ovine, UniProt P01218 25-120; P01227 20-129); experiment: cell-based or functional assay
[3] = biological target: T3, α-subunit of ovine FSH (ovine, UniProt P01218 25-120); experiment: ELISA, subunit adsorbed on the plate, antibody titrated; (A/B)x100 relative to oFSH
Experimental: (§1) The specificity of the antibodies and of the scFv thereof was studied by the ELISA technique. Each hormone evaluated was prepared at the concentration of 10 μg/ml in a 0.1M sodium carbonate buffer, pH 9.6, and distributed in a proportion of 100 μl per well on an ELISA plate. The adsorption time was 18 hours at +4° C. After five washes, the wells were treated with 100 μl of PBS supplemented with 0.1% Tween and 1% BSA for 45 minutes at 37° C., then each antibody or scFv was distributed in a proportion of 100 μl/well and incubated for one hour at 37° C. On each hormone evaluated, the antibodies and the scFvs were distributed at various concentrations according to a range of 10 to 250 μg/ml for the antibodies and of 10 to 150 or 200 μg/ml for the scFvs.
(§2) After five washes, a secondary antibody coupled to peroxidase (HRP) was distributed in a proportion of 100 μl/well and incubated for one hour at 37° C. […] For the scFvs, an anti-His Tag HRP (Ref. R93125 Life Technologies, France) was used. […] After the reaction had been stopped with 1M H₂SO₄ (50 μl/well), the strength of the colored reaction (optical density) was measured using a spectrophotometer for ELISA plates.
(§3) The percentage of cross reaction was calculated conventionally by comparing the dose-response curves obtained with the concentration range of the antibody or of the scFv.

[4] = biological target: T4, β-subunit of ovine FSH (ovine, UniProt P01227 20-129); experiment: as above
T4 construct: mature; Isolated subunit adsorbed on the ELISA plate; also called β-s.u. oFSH; β-oFSH
Experimental: as §1, §2, §3

[5] = biological target: T5, β-subunit of human FSH (human, UniProt P01225 19-129); experiment: as above
T5 construct: mature; Isolated subunit adsorbed on the ELISA plate; also called β-s.u. hFSH
T5 sequence (P01225 19-129): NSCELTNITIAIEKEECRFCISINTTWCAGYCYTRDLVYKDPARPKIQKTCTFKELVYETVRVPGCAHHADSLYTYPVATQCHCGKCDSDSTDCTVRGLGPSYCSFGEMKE
Experimental: as §1, §2, §3

[6] = biological target: T1, human FSH Gonal-F (recombinant human …); experiment: ELISA, hormone adsorbed on the plate, antibody titrated; (A/B)x100 relative to oFSH
Experimental: as §1, §2, §3

[7] = biological target: T6, human FSH Puregon (recombinant human FSH, Merck Schering-Plough) (human, UniProt P01215 25-116; P01225 19-129); experiment: as above
T6 construct: mature; Recombinant pharmaceutical preparation; also called hFSH (Puregon); hFSH Puregon
T6 sequence (P01215 25-116, chain 1 of 2): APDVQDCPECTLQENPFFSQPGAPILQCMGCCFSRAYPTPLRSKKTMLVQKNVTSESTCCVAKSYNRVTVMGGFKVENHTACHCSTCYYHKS
T6 sequence (P01225 19-129, chain 2 of 2): as the sequence (P01225 19-129) above
Experimental: as §1, §2, §3

[8] = biological target: T7, human FSH Fostimon (purified FSH extracted from urine, Laboratoire Genévrier) (human, UniProt P01215 25-116; P01225 19-129); experiment: as above
T7 construct: mature; Extracted pharmaceutical preparation; also called hFSH (Fostimon); hFSH Fostimon
T7 sequence (P01215 25-116, chain 1 of 2): as the sequence (P01215 25-116, chain 1 of 2) above
T7 sequence (P01225 19-129, chain 2 of 2): as the sequence (P01225 19-129) above
Experimental: as §1, §2, §3

[9] = biological target: T8, porcine FSH (pFSH) (porcine, UniProt P01219 25-120; P01228 21-129); experiment: as above
Experimental: as §1, §2, §3

[10] = biological target: T1, human FSH Gonal-F (recombinant human …); experiment: ELISA saturation binding, one site-specific binding fit in GraphPad Prism (estimate)
Experimental: as §1

[11] = biological target: T6, human FSH Puregon (recombinant human …); experiment: as above
Experimental: as §1

[12] = biological target: T7, human FSH Fostimon (purified FSH …); experiment: as above
Experimental: as §1

[13] = biological target: T9, ovine LH (oLH) (ovine, UniProt P01218 25-120; P01231 21-141); experiment: as above
Experimental: as §1

[14] = biological target: T10, porcine LH (pLH) (porcine, UniProt P01219 25-120; P01232 21-141); experiment: as above
Experimental: as §1

[15] = biological target: T11, bovine LH (bLH) (bovine, UniProt P01217 25-120; P04651 21-141); experiment: as above
Experimental: as §1

[16] = biological target: T12, equine chorionic gonadotropin (eCG) (equine, UniProt P01220 25-120; P08751 21-169); experiment: as above
T12 construct: mature; Alpha/beta dimer
T12 sequence (P01220 25-120, chain 1 of 2): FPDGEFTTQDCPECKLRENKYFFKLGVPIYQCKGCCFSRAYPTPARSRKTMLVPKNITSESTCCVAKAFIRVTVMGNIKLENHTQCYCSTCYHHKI
T12 sequence (P08751 21-169, chain 2 of 2): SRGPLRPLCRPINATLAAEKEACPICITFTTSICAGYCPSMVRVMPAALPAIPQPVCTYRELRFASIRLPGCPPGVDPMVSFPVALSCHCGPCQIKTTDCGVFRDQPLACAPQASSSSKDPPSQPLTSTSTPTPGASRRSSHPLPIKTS
Experimental: as §1

[17] = biological target: T13, hCG Chorulon (human chorionic gonadotropin extracted from urine, MSD) (human, UniProt P01215 25-116; P0DN86 21-165); experiment: as above
T13 construct: mature; Extracted veterinary preparation
T13 sequence (P01215 25-116, chain 1 of 2, other chains not shown): as the sequence (P01215 25-116, chain 1 of 2) above
Experimental: as §1

[18] = biological target: T14, hCG Endo 5000 (purified human chorionic gonadotropin, Schering-Plough) (human, UniProt P01215 25-116; P0DN86 21-165); experiment: as above
T14 construct: mature; Extracted pharmaceutical preparation
T14 sequence (P01215 25-116, chain 1 of 2, other chains not shown): as the sequence (P01215 25-116, chain 1 of 2) above
Experimental: as §1

[19] = biological target: T2, ovine FSH (oFSH); experiment: as above
Experimental: as §1

[20] = biological target: T8, porcine FSH (pFSH); experiment: as above
Experimental: as §1

[21] = biological target: T1, human FSH Gonal-F (recombinant human …); experiment: ELISA, hormone adsorbed on the plate, scFv titrated, anti-His HRP; (A/B)x100 relative to oFSH
Experimental: as §1, §2, §3

[22] = biological target: T6, human FSH Puregon (recombinant human …); experiment: as above
Experimental: as §1, §2, §3

[23] = biological target: T7, human FSH Fostimon (purified FSH …); experiment: as above
Experimental: as §1, §2, §3

[24] = biological target: T9, ovine LH (oLH); experiment: as above
Experimental: as §1, §2, §3

[25] = biological target: T10, porcine LH (pLH); experiment: as above
Experimental: as §1, §2, §3

[26] = biological target: T11, bovine LH (bLH); experiment: as above
Experimental: as §1, §2, §3

[27] = biological target: T8, porcine FSH (pFSH); experiment: as above
Experimental: as §1, §2, §3

[28] = biological target: T2, ovine FSH (oFSH); experiment: ELISA saturation binding, one site-specific binding fit in GraphPad Prism (estimate); differs from Table 25
[29] = biological target: T3, α-subunit of ovine FSH; experiment: ELISA, subunit adsorbed on the plate, antibody titrated; (A/B)x100 relative to oFSH; remark: listed apart in the source
[30] = biological target: T4, β-subunit of ovine FSH; experiment: as above; remark: listed apart in the source
[31] = biological target: T5, β-subunit of human FSH; experiment: as above; remark: listed apart in the source

T1 sequence (P01215 25-116, chain 1 of 2): as above
T1 sequence (P01225 19-129, chain 2 of 2): as the sequence (P01225 19-129) above

B1: CH10 monoclonal antibody (antibody, IgM, V domains shown)
VH: EVQLVESGGGLVQPKGSLKLSCAASGFTFNTYAMNWVRQAPGKGLEWVARIRSKSNNYATYYADSVKDRFTISRDDSQSMLYLQMNNLKTEDTAMYYCVRQDYYGSSYFDYWGQGTTLTVSS
VL: DIVMTQSPATLSVTPGDRVSLSCRASQSISDYLHWYQQKSHESPRLLIKYASQSISGIPSRFSGSGSGSDFTLSINSVEPEDVGVYYCQNGHSFPYTFGGGTKLEIK
notes: also called CH10 antibody; CH10 ligand
- EC50 of the hFSH/CH10 complex, cAMP (GloSensor), HEK 293 cells with the human FSH receptor [1]: 0.317 nM
- amplification of cAMP secretion, bovine granulosa cells [2]: 5.5 fold
- cross reaction [3]: 43%
- cross reaction [4]: 88%
- cross reaction [5]: 40%
- cross reaction [6]: 50%
- cross reaction [7]: 71%
- cross reaction [8]: 100%
- cross reaction [9]: 24%

B2: CH10 scFv (scFv)
scFv: QVQLQQSGGGLVQPKGSLKLSCAASGFTFNTYAMNWVRQAPGKGLEWVARIRSKSNNYATYYADSVKDRFTISRDDSQSMLYLQMNNLKTEDTAMYYCVRQDYYGSSYFDYWGQGTTLTVSSGGGGSGGGGSGGGGSDIQMTQTPATLSVTPGDRVSLSCRASQSISDYLHWYQQKSHESPRLLIKYASQSISGIPSRFSGSGSGSDFTLSINSVEPEDVGVYYCQNGHSFPYTFGGGTKLEIKHHHHHH
notes: VH-(Gly4Ser)3-VL-His6, made in the E. coli periplasm; also called scFv derived from the CH10 antibody
- Kd [10]: 1820 nM
- Kd [11]: 11500 nM
- Kd [12]: 1590 nM
- Kd [13]: 1550 nM
- Kd [14]: 2470 nM
- Kd [15]: 1940 nM
- Kd [16]: 1970 nM
- Kd [17]: 1470 nM
- Kd [18]: 2090 nM
- Kd [19]: 2850 nM
- Kd [20]: 5220 nM
- cross reaction [21]: 32%
- cross reaction [22]: 67%
- cross reaction [23]: 30%
- cross reaction [24]: 68%
- cross reaction [25]: 63%
- cross reaction [26]: 52%
- cross reaction [27]: 175%
- Kd [28]: 7510 nM

B3: CA5 monoclonal antibody (antibody, IgG2a, V domains shown)
VH: EVKLVESGGGLVQPGGSLRLSCATSGFTFSDFYMEWVRQPPGKRLEWIAASRNKAKDYTTEYSASVKGRFIVSRDTSQSILYLQMNALRAEDTAIYFCARDARFAYWGQGTLVTVSA
VL: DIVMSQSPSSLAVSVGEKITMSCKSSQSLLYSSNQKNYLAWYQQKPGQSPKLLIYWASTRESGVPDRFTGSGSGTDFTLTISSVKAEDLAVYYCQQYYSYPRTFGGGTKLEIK
notes: also called CA5 antibody; CA5 ligand
- EC50 of the hFSH/CA5 complex, cAMP (GloSensor), HEK 293 cells with the human FSH receptor [1]: 0.136 nM
- EC50 of the oFSH/CA5 complex, cAMP (GloSensor), HEK 293 cells with the human FSH receptor [2]: 0.283 nM
- amplification of cAMP secretion, bovine granulosa cells [2]: 1.3 fold
- cross reaction [29]: 6%
- cross reaction [30]: 80%
- cross reaction [31]: 50%
- cross reaction [6]: 128%
- cross reaction [7]: 70%
- cross reaction [8]: 76%
- cross reaction [9]: 134%
